In US20180002403A1 (CRESCENDO BIOLOGICS, published 2018):

B1: clone 2.2 VH (VHH)
VHH: QVQLVQSGAEVKKPGASVKVSCKASGYPFTSYDINWVRQATGRSLEWMGWMNPTNGNTVYAQKFQDRVTMTRNTSISTAYMELSSLRSEDTAVYFCARGRRDDWKNNYWGQGTLVTVSS
notes: Optimized variant of clone 2.1 from the recombination library; human VH single domain; also called optimized VH 2.2
B2: clone 1.1 VH (VHH)
VHH: EVQLVESGGGLVQPGGSLRLSCAASGFTFSSYSMYWVRQAPGKGLEWVANIKQDGSEKYYVDSVKGRFTISRDNAKNSLFLQMNSLRAEDTAVYYCAKGEILPLHFDYWGQGTLVTVSS
notes: Human VH single domain (no light chain) from a Tg/TKO mouse, lead raised against IL-17A; It was cloned in phagemid pUCG3; also called VH 1.1; parent VH 1.1
B3: clone 1.6 VH (VHH)
VHH: EVQLVESGGGLVQPGGSLRLSCAASGFTFSSYSMYWVRQAPGKGLEWVAEIKQDGSEQYYVDSVKGRFTISRDNAKNSLYLQMNSLRAEDTAVYYCAKGEILPLYFDYWGQGTLVTVSS
notes: Optimized variant of clone 1.1 from the recombination library; human VH single domain; also called optimized VH clone 1.6
B4: clone 1.10 VH (VHH)
VHH: VQLVESGGGLVQPGGSLRLSCAASGFTFSSYRMYWVRQAPGKGLEWVASIEQDGSEEYYVDSVKGRFTISRDNAKKSLFLQMNSLRAEDTAVYYCAKGEILPLYFDYWGQGTLVTVSS
notes: Optimized variant of clone 1.1 from the recombination library; human VH single domain; also called optimized VH clone 1.10

Experiments:
[1] = molecular target: IL-17RA Fc fusion protein (human, UniProt Q96F46 33-320, limits assumed); test: BIAcore T200, single-cycle kinetics, IL-17RA Fc fusion captured on protein G chip, 1:1 model
Method: (§1) Recombinant IL-17A (Peprotech AF-200-17) was diluted to 1 μg/ml in acetate buffer, pH 5.5 (BIAcore, cat# BR-100-52) and coupled to a CM5 Series S chip (cat # BR-1006-68) using amine-coupling chemistry (NHS-EDC amine-coupling kit, cat # BR-1000-50) and the BIAcore immobilization Wizard software. In this way 100RU of IL-17A was immobilised plus a blank surface (no IL-17A) was also prepared for reference subtraction. For IL-17RA, first a protein G chip was prepared by diluting protein G to 20 μg/ml in acetate buffer, pH 4 (BIAcore, cat# BR-100-49) and then coupled 1200 RU a CM5 Series S chip using amine coupling chemistry. This surface was then used to capture IL-17RA Fc fusion protein from solution: IL-17RA at 10 μg/ml in HBS injected for 10 seconds at 30 μl/min flow rate would capture approximately 100-150RU of IL-17RA onto the protein G surface.
(§2) Binding kinetics of optimized clone 1.1 (anti-IL-17A) and clone 2.1 (anti-IL-17RA) VH were determined by single-cycle kinetics. […] VH binding kinetics were then determined from the (blank subtracted) sensorgram traces using 1:1 binding models and BIAevaluation software.

[2] = molecular target: T1, Recombinant human IL-17A (Peprotech AF-200-17) (human, UniProt Q16552 24-155); test: BIAcore T200, single-cycle kinetics, IL-17A amine-coupled to CM5 chip
T1 construct: Amine-coupled to a CM5 chip (100 RU) for BIAcore; also called recombinant IL-17A
Method: Binding kinetics of VH antibodies were measured on a BIAcore T200 instrument. Target (either recombinant IL-17A or IL-17RA) was diluted to 1 μg/ml in acetate buffer, pH 5.5 (BIAcore, cat# BR-100-52) and coupled to a CM5 Series S chip (cat # BR-1006-68) using amine-coupling chemistry (NHS-EDC amine-coupling kit, cat # BR-1000-50) and the BIAcore immobilization Wizard software. In this way 100RU of target was immobilised plus a blank surface (no target) was also prepared for reference subtraction.
Binding kinetics of VH antibodies were determined by single-cycle kinetics. VH antibodies were prepared in dilution series (typically 1:3 dilution series starting with 100 nM VH at the highest concentration), and then injected over the antigen-coated surfaces and also a blank surface, starting with the lowest concentration of VH and then working progressively up to the highest concentration. VH binding kinetics were then determined from the (blank subtracted) sensorgram traces using 1:1 binding models and BIAevaluation software.

[3] = molecular target: T1, Recombinant human IL-17A (Peprotech …); test: BIAcore T200, single-cycle kinetics, IL-17A amine-coupled to CM5 chip, 1:1 model
Method: as §1, §2

T1 sequence (Q16552 24-155 limits assumed): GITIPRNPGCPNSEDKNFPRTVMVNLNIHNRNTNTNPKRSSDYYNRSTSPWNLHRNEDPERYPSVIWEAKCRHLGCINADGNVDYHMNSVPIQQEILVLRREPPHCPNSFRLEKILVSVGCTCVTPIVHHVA

Binder | fold improvement in affinity over parent clone 1.1 [3] [fold] | also measured
B1 | – | fold improvement in affinity over parent clone 2.1 [1]: 5 fold
B2 | – | binding result [2]: binds
B3 | ≤ 10 | –
B4 | ≤ 10 | –
